Assay results taken from patent publication US20210395731, “METHOD AND COMPOSITION FOR INHIBITING GROWTH OF BACTERIUM” (City University of Hong Kong, published 2021).

How the values were obtained:
[1] = target: T1, Hfq (Pseudomonas aeruginosa, UniProt Q9HUM0 Q9HUM0:1-82); test: EMSA; apparent Kd, Hill fit; two cooperative binding sites; 50 mM Tris, 250 mM NH4Cl pH 7.5, tRNA, 37 C; exact value in figure only; details: tags: His tag (pET28a, TALON purified, anti-His6 used), chain copies: 6 inferred, label: 32P-UTP internal
T1 sequence (Q9HUM0 whole entry, one chain of several): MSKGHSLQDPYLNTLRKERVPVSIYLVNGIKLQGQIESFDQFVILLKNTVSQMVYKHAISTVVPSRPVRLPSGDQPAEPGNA

[2] = target: T1, Hfq; test: EMSA; apparent Kd, Hill fit; 50 mM Tris, 250 mM NH4Cl pH 7.5, tRNA, 37 C; exact value in figure only; details: tags: His tag (pET28a, TALON purified, anti-His6 used); chain copies: 6 inferred; label: 32P-UTP internal; I-shaped terminator

B1: AS2779 sRNA (ssRNA)
RNA: GCGAACCCCAAGGGUAUUUCCCGACCAGCUCCCCCGCGGUCGGGAUUUUUUUUUGCCUGUCGCUCAGCGCUUCGGGUCGAAGGGCGAAUAGCCCCGCCGGCGCAGGCUCGCCAGGGGCGCGAACAGCGG
For B1, the Kd ([1]; I-shaped terminator, canonical terminator in the middle) was under 150 nM.

B2: IGR2780 sRNA (ssRNA)
RNA: GCUGUACAUCCCUGGAUCCUUUCCCGGCCUGCUCCACGCGGCCGGGAUUUUUUUUGCCC
B2 showed a Kd ([1]; terminator stem-loop with poly(U) stretch) of under 150 nM.

B3: AS1974 sRNA (ssRNA)
RNA: GAAUGUUCUUAAAUAUCCUCAAGCGGUUGCGCGGCCAGGCACUGGUCGAGGAGAUGCACCAGGGUGGCCUGUUCCACCGGGGUGAGCGGGGCAAACAACUCGUCAUGCACGCGUGACAUGAUGGCCUC
In the case of B3, the Kd [2] is reported as under 150 nM.
